According to the supplement of paper PMC9876800:

System: peptide library, one residue held at a place counted from the S/T acceptor
Assay: relative phosphorylation of the sub-library (ratio to the mean residue at this position); higher = residue favoured
In short: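 Relative sub-library phosphorylation is a ratio to the mean residue at the same position. Purified recombinant kinases were incubated under kinase-specific conditions with biotinylated degenerate peptide sub-libraries, each fixing one residue at one position around a central Ser/Thr, using 50 μM peptide and 50 μM ATP spiked with γ-32P-ATP for 90 min. Spots captured on streptavidin membranes were phosphorimaged and quantified by densitometry.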

Sequence of NEK5, construct: aa1-508, human (Q6P3R8 1-508, looked up): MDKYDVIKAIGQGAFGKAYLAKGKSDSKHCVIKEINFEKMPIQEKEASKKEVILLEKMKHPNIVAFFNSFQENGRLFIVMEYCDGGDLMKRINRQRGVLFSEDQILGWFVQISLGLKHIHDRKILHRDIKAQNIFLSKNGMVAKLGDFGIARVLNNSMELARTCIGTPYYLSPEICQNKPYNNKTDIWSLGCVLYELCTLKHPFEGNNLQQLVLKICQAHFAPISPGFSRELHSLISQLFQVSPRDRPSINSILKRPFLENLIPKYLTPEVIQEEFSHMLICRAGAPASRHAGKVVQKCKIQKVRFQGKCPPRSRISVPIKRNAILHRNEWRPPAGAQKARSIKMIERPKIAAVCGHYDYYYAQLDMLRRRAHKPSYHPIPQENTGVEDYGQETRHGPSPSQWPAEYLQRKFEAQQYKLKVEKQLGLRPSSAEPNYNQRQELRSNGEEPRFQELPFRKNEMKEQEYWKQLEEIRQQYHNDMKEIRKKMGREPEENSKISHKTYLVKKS
Sequence of PAK4, construct: aa295-end, human (O96013 295-591, looked up): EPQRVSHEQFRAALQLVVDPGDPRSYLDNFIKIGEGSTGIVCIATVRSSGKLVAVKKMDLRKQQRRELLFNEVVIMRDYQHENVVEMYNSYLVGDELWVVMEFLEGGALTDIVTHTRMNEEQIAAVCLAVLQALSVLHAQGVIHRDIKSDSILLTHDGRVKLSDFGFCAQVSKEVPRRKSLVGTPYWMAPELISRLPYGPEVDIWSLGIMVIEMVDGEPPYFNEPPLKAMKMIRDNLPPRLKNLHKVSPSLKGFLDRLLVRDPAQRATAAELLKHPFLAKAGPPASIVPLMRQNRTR
Sequence of MYO3A, construct: aa1-308, human (Q8NEV4 1-308, looked up): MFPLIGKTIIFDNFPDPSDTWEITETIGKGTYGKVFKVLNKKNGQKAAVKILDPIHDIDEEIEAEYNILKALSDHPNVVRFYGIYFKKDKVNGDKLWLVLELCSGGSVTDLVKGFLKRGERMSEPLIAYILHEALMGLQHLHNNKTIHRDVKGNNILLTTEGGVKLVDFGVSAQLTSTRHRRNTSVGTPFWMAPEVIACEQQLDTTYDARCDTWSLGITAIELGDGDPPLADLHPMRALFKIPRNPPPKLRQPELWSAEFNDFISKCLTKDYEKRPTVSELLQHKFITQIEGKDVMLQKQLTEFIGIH
Sequence of NIM1K, construct: Full length, human (Q8IY84 whole entry, looked up): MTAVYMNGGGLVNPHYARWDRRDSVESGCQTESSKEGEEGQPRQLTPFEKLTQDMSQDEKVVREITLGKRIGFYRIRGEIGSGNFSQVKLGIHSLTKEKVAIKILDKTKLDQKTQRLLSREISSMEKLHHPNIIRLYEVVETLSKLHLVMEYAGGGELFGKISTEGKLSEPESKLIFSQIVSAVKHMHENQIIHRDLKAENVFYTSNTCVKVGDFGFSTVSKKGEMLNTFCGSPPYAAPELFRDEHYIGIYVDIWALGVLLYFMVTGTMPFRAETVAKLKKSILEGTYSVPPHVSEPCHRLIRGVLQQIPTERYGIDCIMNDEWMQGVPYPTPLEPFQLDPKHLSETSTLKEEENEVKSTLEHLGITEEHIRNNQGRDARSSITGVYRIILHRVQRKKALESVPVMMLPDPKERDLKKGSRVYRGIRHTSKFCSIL

MYO3A, construct: aa1-308, human (from UniProt Q8NEV4)
relative phosphorylation
Conditions	at +1	at +2	at +3	at +4	at -1	at -2	at -3	at -4	at -5
A fixed	0.412	0.7	0.734	0.973	0.971	0.873	1.07	0.953	1.14
D fixed	0.178	0.35	0.257	0.506	1.19	0.602	0.814	1.22	1.14
E fixed	0.151	0.271	0.229	0.425	0.697	0.382	0.772	1.19	1.08
F fixed	0.71	0.638	0.858	0.517	0.847	1.45	0.821	0.951	0.819
G fixed	0.559	0.815	0.815	1.34	1.81	0.691	1.05	1.12	1.12
H fixed	0.634	1.3	1.02	0.986	1.07	1.59	1.31	1.26	1.11
I fixed	1.65	0.572	0.801	0.72	0.345	0.684	0.789	0.801	0.823
K fixed	1.49	3.03	2.71	2.63	1.12	0.754	1.2	0.982	1.13
L fixed	2.17	0.728	1.08	0.771	0.976	0.498	0.683	0.74	0.629
M fixed	2.55	0.933	0.883	0.67	1.22	0.941	0.903	0.807	0.81
N fixed	0.61	0.737	0.835	0.853	1.29	1.21	1.16	1.19	1.06
P fixed	0.313	0.857	0.766	0.981	0.568	0.633	0.959	0.899	1.09
Q fixed	0.737	0.726	0.753	0.908	1.01	0.798	1.08	1.06	1.05
R fixed	1.95	2.8	2.77	2.32	1.26	1.2	1.16	0.835	1.18
V fixed	0.882	0.688	0.775	0.752	0.523	0.579	0.759	0.89	0.927
W fixed	1.01	0.908	0.756	1.01	0.886	1.49	1.26	1.11	0.83
Y fixed	0.985	0.947	0.956	0.643	1.21	2.62	1.21	0.993	1.08
pThr fixed	0.523	0.418	0.71	0.348	0.573	0.699	0.939	1.19	1.06
pTyr fixed	0.325	0.301	0.649	0.403	1.65	0.771	0.993	1.24	1.24

NEK5, construct: aa1-508, human (from UniProt Q6P3R8)
relative phosphorylation
Conditions	at +1	at +2	at +3	at +4	at -1	at -2	at -3	at -4	at -5
A fixed	1.01	0.985	0.773	0.99	1.04	1.3	1.01	1.05	1.21
D fixed	0.278	0.417	0.524	0.792	0.791	1.17	0.548	1.14	1.18
E fixed	0.295	0.352	0.418	0.76	0.848	1.18	0.597	1.08	0.891
F fixed	1.25	0.913	1.34	0.978	0.649	0.857	1.71	0.997	1
G fixed	1.39	0.768	1.02	1.29	0.889	1.65	1.5	1.32	1.45
H fixed	0.864	1.15	1.07	1.2	1.1	1.17	1.07	1.05	1.02
I fixed	0.943	0.752	0.978	0.639	0.403	0.475	0.308	0.616	0.532
K fixed	1.04	1.74	0.986	1.26	1.74	0.692	0.927	1.11	1.06
L fixed	1.06	0.885	1.33	0.946	1.08	1.08	1.54	0.803	0.882
M fixed	1.82	1.1	1.15	0.968	1.16	1.18	1.5	1.06	0.969
N fixed	1.01	1.14	1.12	1.13	1.35	1.48	0.849	1.12	1.15
P fixed	0.238	0.735	0.987	1.31	0.504	0.692	1.35	1.19	1.39
Q fixed	1.61	1.01	0.868	1.05	1.31	0.958	0.729	0.869	0.844
R fixed	1.36	2.28	1.26	1	1.78	0.826	0.798	0.994	1.09
V fixed	0.902	0.846	0.812	0.701	0.624	0.482	0.318	0.531	0.655
W fixed	1	0.873	1.29	1.07	0.643	0.945	1.22	1.25	0.896
Y fixed	0.933	1.05	1.07	0.914	1.08	0.846	1.03	0.826	0.771
pThr fixed	0.498	0.581	0.612	0.602	0.407	0.745	0.844	1	1.2
pTyr fixed	0.429	0.401	0.715	0.562	0.879	1.12	1.01	1.01	1.15

NIM1K, construct: Full length, human (from UniProt Q8IY84)
relative phosphorylation
Conditions	at +1	at +2	at +3	at +4	at -1	at -2	at -3	at -4	at -5
A fixed	1.02	1.1	0.686	0.823	1.14	1.35	0.839	1.14	1.43
D fixed	0.328	0.286	1.08	0.716	0.362	0.331	0.475	0.831	0.765
E fixed	0.455	0.311	0.495	0.844	0.331	0.307	0.502	0.762	0.602
F fixed	1.17	1.55	1.46	0.97	0.571	1.7	0.769	0.709	0.63
G fixed	0.75	0.407	0.548	0.799	3.74	1.27	0.883	1.33	1.12
H fixed	0.924	0.848	1.15	0.801	0.966	1.15	1.06	1.06	1.26
I fixed	0.801	1.32	0.626	1.37	0.503	0.705	0.681	0.749	0.778
K fixed	0.686	0.545	0.552	1.12	1.37	1.03	1.21	1.57	1.73
L fixed	0.975	1.52	1.15	1.98	0.818	0.932	0.84	0.958	0.869
M fixed	1.83	1.3	0.82	1.31	0.926	0.997	0.966	0.956	0.781
N fixed	0.722	0.496	1.12	0.697	0.842	1.06	0.797	1.25	1.2
P fixed	0.376	0.51	0.404	0.722	0.76	0.361	0.823	0.87	0.852
Q fixed	2.16	0.607	0.549	0.795	1.05	0.737	0.887	0.935	0.868
R fixed	1.05	0.633	0.666	1.24	1.44	1.38	3.47	1.41	1.41
V fixed	1.2	1.48	0.645	1.42	0.693	0.888	0.872	0.712	0.917
W fixed	1.16	2.06	3.85	0.717	0.709	1.7	0.97	0.863	1.04
Y fixed	1.39	2.04	1.19	0.686	0.775	1.1	0.957	0.884	0.758
pThr fixed	0.564	0.357	0.387	0.81	0.341	0.522	0.655	0.711	0.72
pTyr fixed	0.365	0.345	0.367	0.644	0.459	0.475	0.619	0.629	0.543

PAK4, construct: aa295-end, human (from UniProt O96013)
relative phosphorylation
Conditions	at +1	at +2	at +3	at +4	at -1	at -2	at -3	at -4	at -5
A fixed	0.553	4.9	0.88	0.922	0.732	0.279	0.735	1.12	1.3
D fixed	0.199	0.382	0.663	0.928	0.373	0.145	0.295	0.611	0.77
E fixed	0.194	0.23	0.814	0.754	0.273	0.136	0.265	0.603	0.58
F fixed	1.3	0.849	1.81	0.823	1.06	0.445	0.54	0.844	0.852
G fixed	0.327	0.715	0.996	1.13	0.534	0.244	0.739	1.35	1.29
H fixed	0.9	0.663	1.12	1.23	1.34	0.76	0.801	1.17	1.09
I fixed	1.79	1.14	1.36	0.8	0.563	0.284	0.415	0.655	0.727
K fixed	0.621	0.267	0.544	0.817	1.45	0.725	3.15	1.51	1.53
L fixed	1.38	0.673	1.35	0.788	1.18	0.244	0.49	0.74	0.71
M fixed	1.96	0.588	1.1	0.877	1.38	0.334	0.599	0.913	0.714
N fixed	0.366	0.542	0.542	0.91	0.967	0.287	0.77	0.873	1
P fixed	0.215	0.667	0.797	2.16	0.251	0.634	0.684	0.868	1.03
Q fixed	0.694	0.433	0.682	1.02	1.06	0.641	0.96	0.902	0.897
R fixed	0.964	0.297	0.615	0.983	2.76	10	4.61	1.98	1.81
V fixed	1.47	2.1	1.07	0.761	0.579	0.282	0.413	0.66	0.75
W fixed	2.49	0.806	1.45	1.21	1.19	0.417	0.876	1.27	0.987
Y fixed	1.57	1.75	1.2	0.894	1.3	1.1	0.651	0.941	0.961
pThr fixed	0.339	0.403	0.705	1.45	0.233	0.218	0.398	0.688	0.662
pTyr fixed	0.514	0.767	1.34	1.19	0.261	0.232	0.402	0.579	0.65
